Reference: the nanobody polyreactivity screen of Harvey et al. (2022)

Assay: yeast display, Sf9 membrane polyspecificity reagent, FACS + sequencing; frameworks hold sequencing errors
Method in brief: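 Synthetic nanobody libraries on Saccharomyces cerevisiae BJ5465 were galactose-induced for 36–48 hours, stained 1 hour at 4 °C with 10% biotinylated, detergent-solubilized Sf9 membrane reagent and enriched on streptavidin microbeads. FACS then separated cells into low and high (top ~1%) gates by anti-HA (expression) and streptavidin (reagent binding) fluorescence. Genes were colony-PCR amplified, MiSeq 2 × 250 sequenced and CDR-length filtered. A clone's polyreactivity label is that of its gate of origin.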

Sequence	polyreactivity (PSR sort gate)
QVQLVESGGGLVQAGGSLRLSCAASGRILIWYAMGWYRQAPGKERELVAAINWSGSSTSYADSVKGRFTISRDNAKNTVYLQMNSLKPEDTAVYYCAAGRLTTYTPGNRYYYWGQGTQVTVSS	high polyreactivity
QVQLVESGGGLVHAGGSLPLSCAASGLTFGSNPMRTYRQAPVQERELVAAISGGTSTNYADSVKGRFTISRDNAKNTVYLQMNSMTPEDTAVYYCAAAKRTADYASYWYVENDYWGQGSQVTVSS	low polyreactivity
QVQLVESGGGLVQAGASLRLSCAASGITFTPYAMGWYRQAPGKERELVAAISWRGGSTYYADSVKGRFTISRDNAKNTVYLQMNSLKPEDTAVYYCAKDGRGYGRYSRYYTGDYWGQGTQVTVSS	low polyreactivity
QVQLVESGGGLVQAGGSLRLSCAASGRTFDYYVMGWYRQAPGKERELVAAISTSGGRTYYADSVKGRFTISRDNAKNTVYLQMNSLKPEDTAVYYCAAYWGGWSFRYLYDYWGQGTQVTVSS	high polyreactivity
QVQLVESGGGLVQAGGSLRLSCAASGFIFRYYAMGWYRQAPGKERELVAGITRTGGRTYYADSVKGRFTISRDNAKNTVYLQMNSLKPEDTAVYYCAADQYSRWRTKEAFSEYGFDYWGQGTQVTVSS	high polyreactivity
QVQLVESGGGLVQAGGSLRLSCAASGSTFRYNARGWYRQAPGKERELVADIRRSGGSTYYADSVKGRFTISRDNAKNTVYLQMNSLKPEDTAVYYCNAAVSRLYYHSYSYRSYYYWGQGTQVTVSS	high polyreactivity
QVQLVESGGGLVQAGGSLRLSCAPSGRTFWSYAMGWYRQAPGKERELVAAISLDDGTTYYADSVKGRFTISRDNAKNTVYLQMNSLKPEDTAVYDCAAEREQGDDGYGPDYGYWGQGTQVTVSS	high polyreactivity
QVQLVESGGGLVQAGGSLRLSCAASGSTFYSNAMGWYRQAPGKERELVATISFRGGRTYYADSVKGRFTISRDNAMNTVYLQMNSLKPEDTAVYYCNAEVSGYPYTYGYRGQGTQVTVSS	low polyreactivity
QVQLVESGGGLVQAGGSLRLSCAASGSTFRPNAMGWYRQAPGKERELVAAISRSGVSTYYADSVKGRFTISRDNAKNTVYLQMNSLQPEDTAVYYCARRYTGRPVLRESWGQGTQVTVSS	low polyreactivity
QVQLVESGGGLVQAGGSLRLSCAASGSIFRVYAMGWYRQAPGKERELVAAISSSGDSTYYADSVKGRFTISRDNAKNTVYLQMNSLKPEDTAVYYCAADVKQRVKSSTMYYWGQGTQVTVSS	high polyreactivity
QVQLVESGGGLVQAGGSLRLSCAASGIIFHFNAMGWYRQARGKERELVASITRGGNTNYADSVKGRFTISRDNAKNTVYLQMNSLKPEDTAVYYCAAKYRSRYDWGQGTQVTVSS	low polyreactivity
QVQLVESGGGLVQAGGSLRLSCAASGFTFSYYARGWYRQAPGKARELVATISSGGITNYADSVKGRFTISRDNAKNTDYLQMNSLKPEDTAVYYCAAEPSWWNVFYPGYNYWGQGTQVTVSS	high polyreactivity
QVQLVESGGGLVQAVGSLRLSCAASGTISVANAMGWYRQAPGKERELVAVINTSGTRTYYADSVKGRFTISRDNAKNTVYLQMNSLKPEDTAVYYCAARLRGVQGYEYWGQGTQVTVSS	low polyreactivity
QVQLVESGRGLVQAGGSLRLSCAASGITFTAYAMGWYRQAPGLERQLVATINSTGITNYADSLKGRFTISRDNAKNTVYLQMNSLKPEDTAVYYCAADLLYISSYDGMDYWGQGTQVTVSS	low polyreactivity
QVQLVESGGGLVQAGGSLRLSCAASGSTFGPYAMGWYRQAPGKERELVAGISYGGGTTFYADSVKGRFTISRDNAKNTVYLQMNSLKPEDTAVYYCAATYRPNRYLEGYWGQGTQVTVSS	high polyreactivity
QVHLVESGGGLVQAGGSLRLSCAASGSTLHYYTMGWYRQEPGKERELVAAITSGGSTHYADSVKGRFTISRDNAKNTVYLQMNSLKPEDTAVYYCAVKTGKWIPRDYWGQGTQVTVSS	low polyreactivity
QVQLVESGGGLVQAGGSLRLSCAASGSIFYYYAMGWYRQAPGKERELVAAISRSGGSTYYADSVKGRFTISRDNAKNTVYVQMNSLKRDDTAVYYCAAQSRYWTYDYWGQGTQVTVSS	high polyreactivity
QVQLVESGGGLVQAGGSLRLSCAASGSTFFTNAMGWYRQAPGKERELVATITWSGGSTYADSVKGRFTISRDNAKNTVYLQMNSLKPEDTAVYYCAAESSSYWGDLGGALWLYDYWGQGTQVTVSS	low polyreactivity
QVQLQESGDGLVQAGGSLRLSSAASGTIFSDYGMGWYRQAPGKERELLAGISDGCNTNYTDSVKGRFTISRDNAHRVSADDQPETGGYRGVLLRGSERWLLFYVYWGLGTQVTVSS	high polyreactivity
QVQLVESGGGLVQAGGSLRLSCAASGFTVGLYAMGWYRQAPGKERELVAAISGGGSTNYADSVKGRFTISRDNAKNTVYLQMNSLKPEDTAVYYCNKAYHNVYYNWYLRYYSYDYWGQGTQVTGSS	low polyreactivity
QVQLVESGGGLVQAGGSLRLSCAASGRTFGVYVMGWYIQAPGKERELVAVITISGGSTYYADSVKGRFTISRDNAKNTVYLQMNSLKPEDTAVYYCAARTYYGYDYWGQGTQVTVSS	high polyreactivity
QVQLVESGGGLVQAGGSLRLSCAASGSNFTTYSMGWYRQATGKERELVAASTSGSSTNYADSVKGRFTISRDNAKNTVYLQMNSLKPEDTAVYYCAVDREWPCYYYAMSKMYYWGQGTQVTVSS	low polyreactivity

Sequence	polyreactivity (PSR sort gate)
QVQLVESGGGLVQAGGSLRLSCAASGSIFYYYAMGWYRQAPGKERELVATISSGGGSTYYADSVKGRFTISRDNAKNTVYLQMNSLKPEDTAVYYCAKRRWRSYYDSWGQGTQVTVSS	low polyreactivity
QDQLVESGGGLVQAGGSLRLSCAASGFIFKYYAMGWYRQAPGKVRELVAVISISGGSTYYADSVKGRLTISRDNAKNTVYLQMNSLKPEDTAVYYCNVYWRRTSTLAFDYCGQGTQVTVSS	high polyreactivity
QVQLVESGGGLVQAGGSLRLSCAASGRTFYWYTMGWYRQAPGKERELVAGIRSGGYTNYADSVKGRFTISRDNAKNTVYLQMNSLKPEDTAVYYCAAGGYSSAYGVSYGSYYYWGQGTQVTVSS	low polyreactivity
QVQLVESGGGLVQAGGSLRLSCAASGFIFRYYAMGWSRQAPGKERELVAAISTGGSTHYADSVKGRFTISRDNAKNTVYLQMNSLKPEDTAVYYCAAPRYFRVRYGYWGQGTQVTVSS	high polyreactivity
QVQLVESGGGLVQAGGSLRLSCAASGLIFWYYAMGWYRQAPGKERELVATISWSGGSTYYADSVKGRFTISRDNAKNTVYLQMNSLKPEDTAVYYCAAVGFRAYVARGYWYYYWGQGTQVTVSS	high polyreactivity
QVQLVESGGGLVQAGGSLRLSCAASGSTFKYYVMGWYRQAPGKERELVAAITRSGSTNYADSVKGRFTISRDNAKNTVYLQMNSLKPEDTAVYYCAAERALSRYGYWGQGTQVTVSS	low polyreactivity
QVQVVESGGGLVQAGGSLRLSCAASGFTFYPNAMGWYRQAPGKERELVATITGSGGSTNYADSVKGRFPISRDTAQNTVYLQMNSLKPEDTAVYYCAADYAVYSFTDFNYWGQGTQVTVSS	high polyreactivity
QVQLVESGGGLVQAGGSLRLSCAASGYIFRWYAMGWYRQAPGKERELVAAISGRGGRTYYADSVKGRFTISRDNAKNTVYLQMNSLKPEDTAVYYCAAVPVVQSQPTYYYWGQGTQVTVSS	high polyreactivity
QVQLVESGGGLVQAGGSLRLSCAASGRTFRYYVMGWYRQAPGKERELVAAITYSGGGTYYADSVKGRFTISRDNAKNTVYLQMNSLKPEDTAVYYCAAARTYQYDKYYYWGQGTQVTVSS	high polyreactivity
QVQLGESGGGLVQAGGSLLLSCAASGSIFRHYTMGWDSQAPGKERELVAVISSGGNTNYADSVKGRFTISRDNAKNTVYFQMNSLKPEDTAVYYCAARSHRYYSRVNYWGQGTQVTVSS	high polyreactivity
QVQLVESGGGLVQAGGSLRLSCAASGITFGRYAMGWYREAPGKERELVAAISRRGGSTHYADSVKGRFTISRDNAKNTVYLQMNSLKPEDTAVYYCNASPYRYRPSEYDYWGQGTQVTVSS	high polyreactivity
QVHLVESGGGLVQAGGSLRLSCAASGRTFKGYAMGWYRQAPGKERELVASINWSDGNTYYADSVKGRFTISRDNAKNTVYLQMNSLKPEDTAVYYCNVRRGDRFVRHDYWGQGTQVTVSS	low polyreactivity
QVQLVESGGGLVQAGGSLRLSCAASGSTFRVNVMGWYRQAPGKERELVAAITTSGGSTYYADSVKGRFTISRDNAKNTVYLQMNSLKPEDTAVYYCAAEGGFSPQPYNLYYATPREDYWGQGTQVTVSS	low polyreactivity
QVQLVESGGGLVQAGGSLRLSCAATGFTFASYAMRLYRQAAGKETELVAAITWGTGTTSYADSVKGRFTISRDNAKNTVYLQMNSLKPEDTAVYYCATRFRPITYRRRYDYWGQGTQVTVSS	low polyreactivity
QVQLVESGGCLVQAGGRLRLSSAASGRTIGWNAMGWYRQAPGTEREFVAAITISGGDTYYADSVKGRFTISRDNAKNNVYFQMNSLKPEDTAVYYCAATSTWRPSFEMDYWGQGTQVTGSS	low polyreactivity
QVQLVESGGGLVQAGGSLRLSCAASGSIFRRYAMGWYRQAPGKERELVAAITGTGGRTYYADSVKGRFTMSRDNAKNTVYLQMNSLKPEDTAVYYCNKLVTYYRADPEYDYWGQGTHVTVSS	high polyreactivity
QVQLVESGGGLVQAGGSLRLTCAASGIIFQRNTMGWYRQAPGKERELVAAITSRGGRTYYADSVKGRFTISRDNAKNTVYLQMNSLKPEDTAVYYCAALLYFYSRPYGYWGQGTQVTVSS	high polyreactivity
QVQLVESGVGLVQAGGSLRLSCAASGRTFWYYGMGWYRQAPGKERELVAAISRSGGRTYYADSVKARFTISRDNAKNTVYLQMNSLKPEDTAVYYCGASYRRTFDYWGQGTQVTVSS	high polyreactivity
QVQLVESGGGLVQAGGSLRLSCAASGFTFRYYAMGWSRQAPGKERELVARITSGGSTNYADSVKGRFTISRDNAKNTVYLQMNSLKPEDTAVYYCAASPYRYWRMYSWGQGTQVTVSS	high polyreactivity
QVQLVESGGGLVQAGGSLRLSCAASGFTFRRYDMGWYRQAPGKERELVATINRGGSTDYADSVKGRFTISRDNAKNTVYLQMNSLKAEDTAVYYCATRYYSSRTWSEYYYWGQGTKVTVSS	high polyreactivity
QVQLVESGGGLVQAGGSIRLSCAASGRIFKAYAMGWYRQAPGKERELVAAITRGGRTKYADSVKGRFTLSRDNAKNTVYLQMNSLKPEYTAVYYCNPPRGVLYDYWGHGTQVTVSS	high polyreactivity
